± gives the uncertainty stated by the source.
B1: Ankyrin-1, residues 1405 to 1484; numbered along this chain, P16157 (parent)
chain: MKMAVISEHLGLSWAELARELQFSVEDINRIRVENPNSLLEQSVALLNLWVIREGQNANMENLYTALQSIDRGEIVNMLE

Variants of: B1
Experiment: abundance fitness (aPCA) (normalised: wild type 0, dead -1); higher = more abundant; growth selection in yeast, the domain comes from the species named
Conditions: Homo sapiens
For MKMAVISEHLGLSWAELARELQFSVEDINRIRVENPNSLLEQSVALLNLWVIREDQNANMENLYTALQSIDRGEIVNMLE [G55D], the abundance fitness was -0.1 ± 0.1. In the case of MKMAVISEHLGLSWAELARELQFSVEDINRIRVENPNSLLEQSVAGLNLWVIREGQNANMENLYTALQSIDRGEIVNMLE [L46G], the abundance fitness is reported as -0.953 ± 0.13. In the case of MKMAVISEHLGLSWAELARELQFSVEDINRIRVENPNSLLEQSVALLNLWVIREGQNANMENLYTALQSIDRGEIVNMRE [L79R], the abundance fitness is reported as -0.528 ± 0.082. Work on MKMAVISEHLGLSWAELARELQFSVEDINRIRVENPNSLLEQSVALLNLWVIREGQNANMENLYTALQSIDRGEIVNMKE [L79K] yielded an abundance fitness of -0.429 ± 0.21. For MKMAVISEHLGLSWAELARELQFSVEDINRIRVENPNSLLEQSVALLNLWVIREGQNANMENLYTALQSIDRGEIVNMIE [L79I], the abundance fitness was -0.019 ± 0.11. MKMAVISEHLGLSWAELARELQFSVEDINRIRVENPNSLLEQSVALLNLWVIDEGQNANMENLYTALQSIDRGEIVNMLE [R53D] showed an abundance fitness of -0.613 ± 0.15. MKMAVISEHLGLSWAELARELQFSVEDINRIRVENPNSLLEQSVALLNLWVIVEGQNANMENLYTALQSIDRGEIVNMLE [R53V] showed an abundance fitness of -0.847 ± 0.11. MKMAVISEHLGLSWAELARELQFSVEDINRIRVENPNSLLEQSVALLNLWVIREGQNANMENPYTALQSIDRGEIVNMLE [L63P] gave an abundance fitness of -0.805 ± 0.2. Work on MKMAVISEHLGLWWAELARELQFSVEDINRIRVENPNSLLEQSVALLNLWVIREGQNANMENLYTALQSIDRGEIVNMLE [S13W] yielded an abundance fitness of -0.494 ± 0.16. MKMAVISEHLGLSWAELARELQFSVEDINRIRVENPNSLLEQSVALLNLWVIREGQNANMENLYTALQSIDRGHIVNMLE [E74H] showed an abundance fitness of -0.082 ± 0.18. MKMAVISEHLGLSWAELARELQFSVEDINRIRVENPNSLLQQSVALLNLWVIREGQNANMENLYTALQSIDRGEIVNMLE [E41Q] showed an abundance fitness of -0.1 ± 0.12. For MKMAVISEHLGLSEAELARELQFSVEDINRIRVENPNSLLEQSVALLNLWVIREGQNANMENLYTALQSIDRGEIVNMLE [W14E], the abundance fitness was -0.788 ± 0.36. Work on MKMAVISEHLGLSWAELARELQFSVEDINRIRVENPNSLLEQSVALLNLWVIREGQNAQMENLYTALQSIDRGEIVNMLE [N59Q] yielded an abundance fitness of -0.031 ± 0.11. For MKMAVISEHLGLSWAELARELQFSVEDINRIRVENPNSLLEQSVALLNLWVIREGQNACMENLYTALQSIDRGEIVNMLE [N59C], the abundance fitness was -0.222 ± 0.12. With MKMAVISEHLGLSWAELARELQFSVEDINRIRVENPNSLLEQSVALLNLWVIREGQNANMERLYTALQSIDRGEIVNMLE [N62R] the abundance fitness was 0.032 ± 0.1. In the case of MKMAVISEHLGLSWAELARELQFSVEDINRIRVENPNSLLEQSVALLNLWVIREGQNANMEALYTALQSIDRGEIVNMLE [N62A], the abundance fitness is reported as -0.045 ± 0.079. MKMAVISEHLGLSWAELARELQFSVEDINRIRVENPNSLLEQSVALLNLWVIREGQNANMEILYTALQSIDRGEIVNMLE [N62I] gave an abundance fitness of 0.089 ± 0.089. For MKMAVISEHLGESWAELARELQFSVEDINRIRVENPNSLLEQSVALLNLWVIREGQNANMENLYTALQSIDRGEIVNMLE [L12E], the abundance fitness was -0.499 ± 0.29. MKMAVISEHLGASWAELARELQFSVEDINRIRVENPNSLLEQSVALLNLWVIREGQNANMENLYTALQSIDRGEIVNMLE [L12A] showed an abundance fitness of 0.213 ± 0.085. Work on MKMAVISEHLGLSWAELARELQFSVEDINRIRVENPNSLLEQSVALLALWVIREGQNANMENLYTALQSIDRGEIVNMLE [N48A] yielded an abundance fitness of -0.415 ± 0.064. MKMAVISEHLGLSWAELARELQFSVEDINRIRVKNPNSLLEQSVALLNLWVIREGQNANMENLYTALQSIDRGEIVNMLE [E34K] gave an abundance fitness of -0.522 ± 0.41. With MKMAVISEHLGLSWAELARELQFSVEDINRILVENPNSLLEQSVALLNLWVIREGQNANMENLYTALQSIDRGEIVNMLE [R32L] the abundance fitness was -0.095 ± 0.056. For MKMAVISEHLGLSWAELARELQFSVEDINRICVENPNSLLEQSVALLNLWVIREGQNANMENLYTALQSIDRGEIVNMLE [R32C], the abundance fitness was -0.13 ± 0.19. For MKMAVISEHLGLSWAELARELQFSVEDINCIRVENPNSLLEQSVALLNLWVIREGQNANMENLYTALQSIDRGEIVNMLE [R30C], the abundance fitness was -0.022 ± 0.12. Work on MKMAVISEHLGLSWAELARELQFSVEDINRQRVENPNSLLEQSVALLNLWVIREGQNANMENLYTALQSIDRGEIVNMLE [I31Q] yielded an abundance fitness of -0.712 ± 0.11. MKMAVISEHLGLSWAELARELQFSVEDINRHRVENPNSLLEQSVALLNLWVIREGQNANMENLYTALQSIDRGEIVNMLE [I31H] showed an abundance fitness of -1.07 ± 0.28. With MKMAVISEHLGLSWAELARELQFSVEDINRIRVENPNSLLEQSVALLNLWVIREGQNANMENLETALQSIDRGEIVNMLE [Y64E] the abundance fitness was -0.353 ± 0.096. Variant MKMAVISEHLGLSWAELARELQFSVEDINRIRVENPNSLLEQSVALLNLWVIREGQNANMENLCTALQSIDRGEIVNMLE [Y64C] has an abundance fitness of -0.24 ± 0.084. Variant MGMAVISEHLGLSWAELARELQFSVEDINRIRVENPNSLLEQSVALLNLWVIREGQNANMENLYTALQSIDRGEIVNMLE [K2G] has an abundance fitness of -0.147 ± 0.048. With MKMASISEHLGLSWAELARELQFSVEDINRIRVENPNSLLEQSVALLNLWVIREGQNANMENLYTALQSIDRGEIVNMLE [V5S] the abundance fitness was -0.361 ± 0.062. MKMAVISEHLGLSWAELARELQFSVEDINRIRVENPNSLLEQSLALLNLWVIREGQNANMENLYTALQSIDRGEIVNMLE [V44L] gave an abundance fitness of 0.014 ± 0.051. Variant MKMAVISEHLGLSWAELARELQFSVEDINRIRVENPNSLLEQSHALLNLWVIREGQNANMENLYTALQSIDRGEIVNMLE [V44H] has an abundance fitness of 0.275 ± 0.078. Work on MKMAVISEHLGLSWAELARELQFSVEDINRIRVENPNSLLEQSVALLNLWVIREGQNANMENLYTALQSIKRGEIVNMLE [D71K] yielded an abundance fitness of -0.058 ± 0.079. In the case of MKMAVISEHLGLSWAELARELQFSVEDINRIRVENPNSLLEQSVALLNLWVIREGQNANMENLYTALQSIDRGEIVNMLG [E80G], the abundance fitness is reported as 0.126 ± 0.08. Work on MKMAVISEHLGLSWAELARELQFSVEDINRIRVENPNSILEQSVALLNLWVIREGQNANMENLYTALQSIDRGEIVNMLE [L39I] yielded an abundance fitness of -0.41 ± 0.43.
